Data on one molecule can be found in article PMC8699147.

For orientation: stoichiometry N means the number of molecules, sites or subunits per partner or assembly.

The target of this assay is T1, alpha-fetoprotein, P02771.
T1 chain: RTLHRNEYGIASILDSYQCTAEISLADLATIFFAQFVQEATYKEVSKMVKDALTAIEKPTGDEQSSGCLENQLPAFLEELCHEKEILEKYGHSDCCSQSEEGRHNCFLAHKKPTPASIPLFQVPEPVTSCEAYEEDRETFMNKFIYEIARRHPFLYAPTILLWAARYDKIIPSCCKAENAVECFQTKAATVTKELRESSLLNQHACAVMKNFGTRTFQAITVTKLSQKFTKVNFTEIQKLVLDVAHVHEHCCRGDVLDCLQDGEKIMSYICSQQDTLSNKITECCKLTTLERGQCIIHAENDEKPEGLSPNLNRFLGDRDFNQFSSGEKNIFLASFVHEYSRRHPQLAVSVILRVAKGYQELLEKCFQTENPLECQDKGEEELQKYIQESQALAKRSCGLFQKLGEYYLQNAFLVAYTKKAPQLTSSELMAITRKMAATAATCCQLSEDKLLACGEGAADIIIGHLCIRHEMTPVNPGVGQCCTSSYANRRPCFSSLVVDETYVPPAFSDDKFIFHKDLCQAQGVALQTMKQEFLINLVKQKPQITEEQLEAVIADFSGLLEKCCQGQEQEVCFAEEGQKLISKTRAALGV
The experiment in a line: native gel or EMSA; native 10% PAGE without SDS of calibrator S1 of VIDAS AFP, 150 V, running buffer 0.025 M TRIS-Base pH 8.3, 0.192 M glycine, Coomassie Blue staining. Conditions: remark: other sources report otherwise. In general terms: In EMSA bound probe runs differently from free probe, usually more slowly.

Values joined by “and” are separate entries in the source; they are usually repeats but may differ in a detail not shown here. Equal values may be shown once.

B1: alpha-fetoprotein, P02771 19-609 (natural protein)
chain: RTLHRNEYGIASILDSYQCTAEISLADLATIFFAQFVQEATYKEVSKMVKDALTAIEKPTGDEQSSGCLENQLPAFLEELCHEKEILEKYGHSDCCSQSEEGRHNCFLAHKKPTPASIPLFQVPEPVTSCEAYEEDRETFMNKFIYEIARRHPFLYAPTILLWAARYDKIIPSCCKAENAVECFQTKAATVTKELRESSLLNQHACAVMKNFGTRTFQAITVTKLSQKFTKVNFTEIQKLVLDVAHVHEHCCRGDVLDCLQDGEKIMSYICSQQDTLSNKITECCKLTTLERGQCIIHAENDEKPEGLSPNLNRFLGDRDFNQFSSGEKNIFLASFVHEYSRRHPQLAVSVILRVAKGYQELLEKCFQTENPLECQDKGEEELQKYIQESQALAKRSCGLFQKLGEYYLQNAFLVAYTKKAPQLTSSELMAITRKMAATAATCCQLSEDKLLACGEGAADIIIGHLCIRHEMTPVNPGVGQCCTSSYANRRPCFSSLVVDETYVPPAFSDDKFIFHKDLCQAQGVALQTMKQEFLINLVKQKPQITEEQLEAVIADFSGLLEKCCQGQEQEVCFAEEGQKLISKTRAALGV
On to B1, for which the stoichiometry N is 2 and 3 and 4.
